We go through 97 variants from the supplement of paper PMC10567573.

The chains are these.
B1: MAGEA6 (parent)
chain: KISGGPRISYPLLHEWALREGEE
B2: ZNF8 (parent)
chain: VHVIGVEEPSVGASMLFDIREST
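Also: lentivirally expressed fusions sorted by FACS into six bins by GFP to DsRed ratio, PSI derived from sequencing read proportions per bin multiplied by bin number.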

In one data set the parent is B1. Put plainly: protein stability index of a GFP-peptide fusion (GPS, HEK-293T) (PSI 1-6); higher = more stable. Conditions: c terminus: native.
Consider KISGGPRISYPLLSEWALREGEE, for which the protein stability index was 3.4.
Same read-out and setting: the value for KISGGPRISYPLLVEWALREGEE was 3.6; that for KISGAPRISYPLLHEWALREGEE was 2.31; that for KISGGPRISYPLWHEWALREGEE was 3.38.
Same read-out and setting: under KISGGPRISYPLLHEWALRNGEE stands 2.34.
In the case of KISGGPRISYPLLHEWALRTGEE, the protein stability index is 2.92.
The same measure, in the same setting: under KISGGPRISYPLLHEWALRECEE stands 3.26; under KISGGPRISYPLLHEWAWREGEE, 2.78; under KISGGPRISYPLLHEWAQREGEE, 1.63.
Same read-out and setting: the value for KISGGPRISYPLLHEWAEREGEE was 3.11; that for KISGGPRISYPLLHEWALREGVE was 1.06; that for KISGGPRISYPLLHEWALREGRE was 3.04.
Regarding KISGGPRISYPLLHEWALREGIE, the protein stability index stood at 2.37.
For KISGGPRISYPLLHEWALREGFE, the protein stability index is 2.75.
On the same count and under the same terms, the value for KISTGPRISYPLLHEWALREGEE was 4.54; that for KISIGPRISYPLLHEWALREGEE was 3.06.
Regarding KWSGGPRISYPLLHEWALREGEE, the protein stability index was 2.41.
With KDSGGPRISYPLLHEWALREGEE, the protein stability index is 4.
On the same count and under the same terms, under KPSGGPRISYPLLHEWALREGEE stands 3.29; under KISGGPRISYPLLHGWALREGEE, 3.53.
KISGGIRISYPLLHEWALREGEE: the protein stability index is 3.5.
For KISGGPRISYPLLHEWELREGEE, the protein stability index came to 3.55.
Same read-out and setting: under KISGGPRISYPLLHEWALREGEM stands 2.17; under KISGGPRISYPLLHEWALREGEP, 1.89; under KISGGPRISYPLLHEWALREGEW, 1.94.
Same read-out and setting: under KISGGPRISYPLLHEWALREGEN stands 2.73; under KISGGPRISYPLLHEHALREGEE, 2.26.
Regarding KISGGPRISYPLLHESALREGEE, the protein stability index was found to be 2.33.
KISGGPRISYPLLHECALREGEE: the protein stability index amounted to 2.94.
In the case of KISGGPRISYPLLHELALREGEE, the protein stability index turned out to be 4.59.
On the same count and under the same terms, under KISGGPRISYPLLHETALREGEE stands 1.89; under KISGGPRISYPLLHEWALGEGEE, 2.67.
Same read-out and setting: under KISGGPRISYPLLHEWALCEGEE stands 2.87; under KISGGPRISYPLLHEWALTEGEE, 3.74.
KISGGPRISYPLLHEWALKEGEE: the protein stability index is 2.08.
The same measure, in the same setting: under KISGGPRISYPLLHEWALPEGEE stands 2.18; under KISGGPRISYPLLHEWALDEGEE, 2.96.
The same measure, in the same setting: under KISGGPRYSYPLLHEWALREGEE stands 2.6; under KISGGPRQSYPLLHEWALREGEE, 2.06.
Same read-out and setting: the value for KISGGPRASYPLLHEWALREGEE was 1.95.
Take FISGGPRISYPLLHEWALREGEE: the protein stability index is 1.67.
On the same count and under the same terms, the value for WISGGPRISYPLLHEWALREGEE was 2.14.

Variants of B2 are the subject of the next data set. The description is as above. To be noted: c terminus: native.
With VHVIGVERPSVGASMLFDIREST, the protein stability index stood at 1.89.
With VHVIGVEDPSVGASMLFDIREST, the protein stability index was found to be 1.69.
For VHVIGVEWPSVGASMLFDIREST, the protein stability index came out at 4.73.
For the variant VHVIGVEHPSVGASMLFDIREST, the protein stability index amounted to 2.08.
Same read-out and setting: under VHVIGVEVPSVGASMLFDIREST stands 2.45; under VHVIGVEIPSVGASMLFDIREST, 4.45.
Consider VHVIGVEQPSVGASMLFDIREST, for which the protein stability index was 1.78.
Same read-out and setting: the value for VHVIGVEPPSVGASMLFDIREST was 1.75; that for VHVIGVEYPSVGASMLFDIREST was 2.87; that for VHVIGVEKPSVGASMLFDIREST was 2.11.
Turning to VHVIGVENPSVGASMLFDIREST, the protein stability index worked out at 1.48.
With VHVIGVETPSVGASMLFDIREST, the protein stability index came to 1.73.
With VHVIGVECPSVGASMLFDIREST, the protein stability index amounted to 3.48.
The same measure, in the same setting: under VHVIGVEFPSVGASMLFDIREST stands 2.49; under VHVIGVESPSVGASMLFDIREST, 2.09; under VHVIGVEAPSVGASMLFDIREST, 2.25.
For VHVIGVEGPSVGASMLFDIREST, the protein stability index is 2.18.
On the same count and under the same terms, under VHVIGVEMPSVGASMLFDIREST stands 1.95; under VHVIGVELPSVGASMLFDIREST, 2.75; under VGVIGVEEPSVGASMLFDIREST, 3.35.
For the variant VMVIGVEEPSVGASMLFDIREST, the protein stability index turned out to be 1.43.
Turning to VEVIGVEEPSVGASMLFDIREST, the protein stability index stood at 3.35.
As to VKVIGVEEPSVGASMLFDIREST, the protein stability index was determined as 2.29.
On the same count and under the same terms, the value for VPVIGVEEPSVGASMLFDIREST was 3.59; that for VWVIGVEEPSVGASMLFDIREST was 2.25.
VSVIGVEEPSVGASMLFDIREST: the protein stability index was 2.81.
Take VDVIGVEEPSVGASMLFDIREST: the protein stability index worked out at 3.42.
On the same count and under the same terms, under VIVIGVEEPSVGASMLFDIREST stands 2.56; under VVVIGVEEPSVGASMLFDIREST, 1.83; under VTVIGVEEPSVGASMLFDIREST, 1.79.
With VQVIGVEEPSVGASMLFDIREST, the protein stability index stood at 2.27.
The same measure, in the same setting: the value for VFVIGVEEPSVGASMLFDIREST was 1.97; that for VYVIGVEEPSVGASMLFDIREST was 2.51.
The same measure, in the same setting: the value for VLVIGVEEPSVGASMLFDIREST was 2.9; that for VCVIGVEEPSVGASMLFDIREST was 1.63; that for VRVIGVEEPSVGASMLFDIREST was 2.09.
Same read-out and setting: the value for VAVIGVEEPSVGASMLFDIREST was 2.67.
In the case of VNVIGVEEPSVGASMLFDIREST, the protein stability index was determined as 2.95.
Same read-out and setting: under FHVIGVEEPSVGASMLFDIREST stands 1.82.
The same measure, in the same setting: the value for YHVIGVEEPSVGASMLFDIREST was 2.29; that for MHVIGVEEPSVGASMLFDIREST was 2.29; that for PHVIGVEEPSVGASMLFDIREST was 3.77.
In the case of IHVIGVEEPSVGASMLFDIREST, the protein stability index came out at 2.
Still for that read-out and setting: under SHVIGVEEPSVGASMLFDIREST stands 3.97; under HHVIGVEEPSVGASMLFDIREST, 3.78.
As for DHVIGVEEPSVGASMLFDIREST, the protein stability index was found to be 3.96.
Regarding WHVIGVEEPSVGASMLFDIREST, the protein stability index was determined as 2.06.
On the same count and under the same terms, under CHVIGVEEPSVGASMLFDIREST stands 1.93.
Same read-out and setting: under THVIGVEEPSVGASMLFDIREST stands 3.92; under NHVIGVEEPSVGASMLFDIREST, 4.07; under QHVIGVEEPSVGASMLFDIREST, 3.88.
On to AHVIGVEEPSVGASMLFDIREST, for which the protein stability index turned out to be 3.67.
For GHVIGVEEPSVGASMLFDIREST, the protein stability index is 3.85.
EHVIGVEEPSVGASMLFDIREST: the protein stability index is 4.18.
For the variant RHVIGVEEPSVGASMLFDIREST, the protein stability index worked out at 2.82.
